The results in this text go back to IntAct's records for PubMed 15483055.

In the experiment the target is pakc_dicdi pakC (UniProt Q55GV3).
pakc_dicdi pakC, sequence (Q55GV3 whole entry): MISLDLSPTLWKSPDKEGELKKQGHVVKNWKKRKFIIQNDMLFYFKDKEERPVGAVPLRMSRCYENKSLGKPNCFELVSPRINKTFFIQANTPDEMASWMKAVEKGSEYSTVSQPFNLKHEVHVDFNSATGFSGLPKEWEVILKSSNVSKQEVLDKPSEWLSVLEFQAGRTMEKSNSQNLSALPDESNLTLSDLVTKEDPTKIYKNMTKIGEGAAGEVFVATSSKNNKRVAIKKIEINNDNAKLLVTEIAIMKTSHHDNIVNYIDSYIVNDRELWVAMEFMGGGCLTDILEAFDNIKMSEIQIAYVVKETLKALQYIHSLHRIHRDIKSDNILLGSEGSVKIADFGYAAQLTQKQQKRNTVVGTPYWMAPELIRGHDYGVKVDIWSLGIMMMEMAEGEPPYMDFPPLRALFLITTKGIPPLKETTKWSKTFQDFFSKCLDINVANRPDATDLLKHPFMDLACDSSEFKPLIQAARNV

Rho-related protein racB (Dictyostelium discoideum (Slime mold)), P34148 T17N, sequence (P34148 whole entry T17N): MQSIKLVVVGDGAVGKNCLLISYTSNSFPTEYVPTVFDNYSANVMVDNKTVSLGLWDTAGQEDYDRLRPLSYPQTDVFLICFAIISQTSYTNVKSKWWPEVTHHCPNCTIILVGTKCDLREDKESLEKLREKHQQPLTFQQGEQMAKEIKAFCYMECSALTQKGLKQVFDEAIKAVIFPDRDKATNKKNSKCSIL

In the case of “Rho-related protein racB (Dictyostelium discoideum (Slime mold)), P34148 T17N”, the “effect of a mutation on the interaction” value is recorded as “decreasing interaction”.
